In this assay the target is SK2 or SK3 channels (apamin-sensitive channels of MDA-MB-435s cells). As to the kind of experiment: cell-based or functional assay.

In turn, “apamin (from UniProt P01500 28-45) (peptide)” had a block of whole-cell outward K+ currents in MDA-MB-435s cells (patch-clamp), IC50 of less than 0.1 nM.
